{
  "source": "patent US20180028693A1",
  "binders": {"B1": {"name": "GvpC-SpyTag (GvpC comprising a SpyTag fused to the C-terminus, and a His-tag fused to the C-terminus of the SpyTag) (protein)", "chain": "MGISLMAKIRQEHQSIAEKVAELSLETREFLSVTTAKRQEQAEKQAQELQAFYKDLQETSQQFLSETAQARIAQAEKQAQELLAFHKELQETSQQFLSATAQARIAQAEKQAQELLAFYQEVRETSQQFLSATAQARIAQAEKQAQELLAFHKELQETSQQFLSATADARTAQAKEQKESLLKFRQDLFVSIFGSGAHIVMVDAYKPTKGSGLEHHHHHH"}},
  "target": "GvpA of Anabaena flos-aquae gas vesicles (GvpA-based shell of urea-stripped Ana GVs) (Anabaena flos-aquae) (UniProt P10397)",
  "sequence (P10397 2-71)": "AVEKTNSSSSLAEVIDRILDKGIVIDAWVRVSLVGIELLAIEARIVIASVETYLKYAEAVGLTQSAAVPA",
  "assay": "SDS-PAGE of ST-Ana GVs against a standard curve of GvpC-ST",
  "data": [
    {"binder": "B1", "values": [
      {"measurement": "SpyTag functionalities per GV", "value": 1000, "unit": "per GV"}
    ]}
  ]
}
